Measured values from publication PMC7591906, “pHLIP ICG for delineation of tumors and blood flow during fluorescence-guided surgery” (Scientific Reports, 2020).
“Also recorded” adds a separate entry of the source. Peptide text beside a SMILES is read from it. * marks the point of attachment. X1 = CC1(C)C(/C=C/C=C/C=C/C=C2/N(CCCCCC(=O)NCCN3C(=O)CC(*)C3=O)c3ccc4ccccc4c3C2(C)C)=[N+](CCCCS(=O)(=O)[O-])c2ccc3ccccc3c21

Columns and labels:
[1] = system: human peripheral blood lymphocytes; experiment: In vitro mammalian cell micronucleus test; type: cell-based; settings: up to 0.5 mg/mL
Protocol: The objective of this study performed at CRL was to determine the potential genotoxicity of pHLIP ICG using an in vitro mammalian cell micronucleus test in human peripheral blood lymphocytes.
Human peripheral blood lymphocytes were treated with pHLIP ICG at levels up to the standard limit of 0.5 mg/mL. […] The negative control results were within the laboratory negative historical control range. Lymphocytes were also incubated with standard positive controls, which caused statistically significant increases in the proportion of cells with micronuclei, confirming the sensitivity of the test system and the activity of the S9 mix. All criteria for a valid assay were therefore met.

[2] = Pharmacokinetics in Beagle dogs, single i.v. bolus injection; type: in vivo; settings: male, dog, plasma, iv, mean
Protocol: The objective of this study performed at CRL was to characterize the pharmacokinetic profile of pHLIP ICG in Beagle dogs following a single i.v. injection.
Blood samples were collected at 5, 15, and 30 minutes, and 1, 2, 4, 6, 8, 12, 24, and 48 hours post-dose for pharmacokinetic evaluation. Samples were placed on crushed wet ice until centrifugation, which was carried out immediately. The samples were centrifuged as per standard procedures. An aliquot of 250 µL of the resultant plasma was separated, transferred to 2.0 mL low-bind tubes containing 1.25 mL of methanol, mixed and frozen immediately over dry ice and transferred to a freezer at -80°C. At the time of analysis, samples were thawed, extracted, and analyzed via LC-MS/MS according to the validated protocol using pHLIPIS.

[3] = Single-dose and 7-days repeat i.v. toxicity with TK in Beagle dogs (GLP); type: in vivo; settings: for AUC(0-t) / C0: 2.16 mg/kg, daily i.v. bolus 2.16 mg/kg
Protocol: The objectives of this GLP study, performed at CRL, were to determine the potential toxicity of pHLIP ICG, when given by single dose i.v. injection or once daily (i.v. injections) for 7 days in dogs, and to evaluate the potential reversibility of any findings following the single dose injection. In addition, toxicokinetic characteristics of pHLIP ICG were examined.
The following parameters and end points were evaluated in the study: mortality, clinical observations, body weights, food consumption, ophthalmology and electrocardiology assessments, clinical pathology parameters (hematology, coagulation, clinical chemistry, and urinalysis), toxicokinetic parameters, gross necropsy findings, organ weights, and histopathological examinations.

[4] = 7-day repeat i.v. toxicity in B6D2F1 mice (GLP); type: in vivo; settings: 13.6 mg/kg/day i.v. for 7 days, incidence and severity decreasing over time
Protocol: The purpose of this GLP study performed at MSK was to assess the acute and delayed toxicity of a repeat administration of pHLIP ICG in mice. The pHLIP ICG was administered for 7 consecutive days.
Throughout the study, body weights, clinical signs, clinical pathology (hematology and clinical chemistry), and histopathology were collected.

[5] = Local tolerance/irritancy in New Zealand white rabbits (GLP); type: in vivo; settings: single 0.124 and 1.86 mg/kg, i.v., intra-arterial, perivenous and subcutaneous
Protocol: The objective of this GLP study performed at CRL was to compare the i.v., intra-arterial, perivascular and subcutaneous routes for potential irritation following a single injection of pHLIP ICG in the rabbits.
The following parameters and end points were evaluated in this study: clinical signs, local irritation assessment, body weights (for dose calculation only), and histopathology of the injection sites. There were no clinical signs, local irritation or any microscopic changes associated with pHLIP ICG during the study.

[6] = Peripheral blood micronucleus test in rats (GLP); type: in vivo, Sprague Dawley rats
Protocol: The objective of this GLP study performed at CRL was to determine the potential genotoxicity of pHLIP ICG when given by i.v. bolus injection to rats using the peripheral blood micronucleus test.
In order to determine the maximum tolerated dose, a dose-range finding test was performed prior to the main test, where male and female rats (3 animals/sex) were administered a single dose of pHLIP ICG by i.v. injection. The doses evaluated were 14 mg/kg and 25 mg/kg using 5% EtOH in PBS, pH 7.4 as the vehicle.
Blood was collected for micronuclei evaluation at 45 hours post-dose (Groups 3 to 7), and 69 hours post-dose (Groups 3 and 7). The proportion of immature erythrocytes among total erythrocytes in the peripheral blood (%RETs) and the percentage of micronucleated reticulocytes (%MN-RETs) in the NC group were within the laboratory historical negative control range. […] The results from both NC and PC groups confirmed the validity of the assay.

[7] = cited from earlier work
Excerpt: Since pHLIP peptides offer a unique approach to the targeting of a spectrum of tumor subtypes, we were motivated to develop a fluorescent pHLIP candidate in order to improve the surgical resection of tumors guided by fluorescence. After testing a variety of fluorescent dyes with pHLIP peptides, we chose a widely used clinical fluorescent dye, indocyanine green (ICG). In addition to its long record of safety, ICG was chosen to couple to pHLIP peptide as a clinical imaging candidate for two main reasons: first, the fluorescence of pHLIP ICG is enhanced about 20 times when pHLIP tethers ICG t ...

[8] = male rats, single i.v. 6.25, 12.5 and 25 mg/kg

**Q.** With `CC(C)C[C@H](NC(=O)[C@H](Cc1ccc(O)cc1)NC(=O)[C@H](C)NC(=O)[C@H](CCCNC(=N)N)NC(=O)[C@H](Cc1c[nH]c2ccccc12)NC(=O)[C@@H]1CCCN1C(=O)[C@H](CC(N)=O)NC(=O)[C@H](CCC(N)=O)NC(=O)[C@H](CC(=O)O)NC(=O)[C@H](CC(=O)O)NC(=O)[C@H](CSC1CC(=O)N(CCNC(=O)CCCCCN2/C(=C/C=C/C=C/C=C/C3=[N+](CCCCS(=O)(=O)[O-])c4ccc5ccccc5c4C3(C)C)C(C)(C)c3c2ccc2ccccc32)C1=O)NC(=O)[C@H](C)N)C(=O)N[C@@H](CC(=O)O)C(=O)N[C@@H](CC(C)C)C(=O)N[C@@H](CC(C)C)C(=O)N[C@@H](Cc1ccccc1)C(=O)N1CCC[C@H]1C(=O)N[C@H](C(=O)N[C@@H](CC(=O)O)C(=O)N[C@H](C(=O)N[C@@H](CC(C)C)C(=O)N[C@@H](CC(C)C)C(=O)N[C@@H](CC(C)C)C(=O)N[C@@H](CC(=O)O)C(=O)N[C@@H](CC(C)C)C(=O)N[C@@H](CC(C)C)C(=O)N[C@@H](Cc1c[nH]c2ccccc12)C(=O)N[C@@H](C)C(=O)O)[C@@H](C)O)[C@@H](C)O` (stereo partly shown) [pHLIP ICG] (H-AC(X1)DDQNPWRAYLDLLFPTDTLLLDLLWA-OH) as the compound, how does the “Cytotoxicity or precipitation in the assay” value [1] read?
**A.** Its value is “no pHLIP ICG related cytotoxicity or precipitation was observed”.

**Q.** And the Induction of micronuclei ([1]; 4 h without/with S9, 24 h without S9)?
**A.** Its Induction of micronuclei is “did not show any evidence of genotoxic activity; also recorded: negative for the induction of micronuclei”.

**Q.** And the clearance ([2]; single i.v. 0.064 mg/kg, read-out: Clearance (Cl) (converted))?
**A.** The clearance was 0.193 mL/min/kg.

**Q.** And the half-life ([2]; single i.v. 0.064 mg/kg, read-out: Elimination half-time (T1/2) (converted))?
**A.** The half-life was 3.7 h.

**Q.** And the Vd ([2]; single i.v. 0.064 mg/kg, read-out: Volume of distribution (Vz))?
**A.** Its Vd is 0.0616 L/kg.

**Q.** What about the AUC(0-inf) ([2]; single i.v. bolus 0.064 mg/kg) of the same compound?
**A.** The AUC(0-inf) was 5550 ng·h/mL.

**Q.** And the C0 ([2]; single i.v. bolus 0.064 mg/kg, 3 males, read-out: C0 (theoretical concentration at time zero))?
**A.** The C0 was 1410 ng/mL.

**Q.** What about the AUC(0-t) ([2]; single i.v. bolus 0.064 mg/kg, read-out: AUC0-48hr) of the same compound?
**A.** The AUC(0-t) was 5450 ng·h/mL.

**Q.** What about the Clinical chemistry changes ([3]; 2.16 mg/kg/day i.v. for 7 days, males and females, non-adverse) of the same compound?
**A.** Its Clinical chemistry changes is “minimal decreases in cholesterol”.

**Q.** And the AUC(0-t) ([3]; Beagle, dog, in vivo, iv, mean, read-out: AUCTlast, day 1)?
**A.** Its AUC(0-t) is 65400 ng·h/mL.

**Q.** What about the AUC(0-t) ([3]; Beagle, dog, in vivo, iv, mean, read-out: AUCTlast, day 7) of the same compound?
**A.** Its AUC(0-t) is 72300 ng·h/mL.

**Q.** And the C0 ([3]; Beagle, dog, in vivo, iv, mean, read-out: C0, day 1)?
**A.** Its C0 is 38400 ng/mL.

**Q.** What about the C0 ([3]; Beagle, dog, in vivo, iv, mean, read-out: C0, day 7) of the same compound?
**A.** The C0 was 42700 ng/mL.

**Q.** And the Cmax ([3]; both sexes, Beagle, dog, in vivo, iv, 2.16 mg/kg/day for 7 days, mean, males and females, read-out: Cmax at NOAEL)?
**A.** Its Cmax is 40300 ng/mL.

**Q.** And the NOAEL ([3]; males and females, 7 days repeated i.v. administration)?
**A.** The NOAEL was “above 2.16 mg/kg/day”.

**Q.** And the Overall toxicity finding ([3]; single i.v. bolus 0.063, 1.08, 2.16 mg/kg or once daily for 7 days at 2.16 mg/kg/day)?
**A.** Its Overall toxicity finding is “did not adversely affect the overall health or condition of the animals”.

**Q.** What about the Toxicity finding [4] of the same compound?
**A.** Its Toxicity finding is “may be associated with germ cell degeneration in males”.

**Q.** What about the Local tolerance [5] of the same compound?
**A.** Its Local tolerance is “well tolerated; also recorded: well-tolerated and did not result in any pHLIP ICG-related changes”.

**Q.** And the “Genotoxic activity (%MN-RETs)” value [6, 8]?
**A.** The value was “did not induce cytogenetic damage; also recorded: showed no evidence of genotoxic activity”.

**Q.** What about the “Reduction in %RETs (cytotoxicity)” value [6, 8] of the same compound?
**A.** The value was “No substantial reduction”.

**Q.** What about the “Clinical signs in dose-range finding test” value ([6]; rats 3 animals/sex, single i.v. 14 mg/kg and 25 mg/kg) of the same compound?
**A.** Its value is “no adverse clinical signs were noted”.

**Q.** What about the “Fluorescence enhancement when tethered to the membrane vs aqueous solution” value [7] of the same compound?
**A.** Its value is “about 20 times”.
